In patent US20240124563A1 (NANJING ZAIMING PHARMACEUTICAL, published 2024) one finds inhibition rate and OD450 nm data, which are given here for one molecule.

In test [1] the target is T1, human MSLN-FL-his protein (human, UniProt Q13421 296-580).
T1 construct: Made in HEK293E cells, purified on nickel column; also called hMSLN-FL-his; not shown: histidine tag
As to the kind of experiment: competitive ELISA on MSLN-FL-His; other antibody: Tab142 (R1) (3.m16).

Test [2] deals with T2, human MSLN-R1-his protein (human, UniProt Q13421 296-390).
T2 construct: MSLN-R1 = Glu296-Thr390; also called hMSLN-R1-his; not shown: histidine tag
T2 chain: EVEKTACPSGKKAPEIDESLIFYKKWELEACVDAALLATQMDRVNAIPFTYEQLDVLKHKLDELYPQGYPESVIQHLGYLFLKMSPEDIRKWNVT
Kind of test: ELISA, antibody 0.0001 nM. On the technique in general: ELISA stands for enzyme-linked immunosorbent assay.

In test [3] the target is T1, human MSLN-FL-his protein. Kind of test: competitive ELISA on MSLN-FL-His; other antibody: NB148-27 (3.m3).
Method: (§1) To identify a binding site of an antibody to an antigen, MSLN VHH-hFc was grouped using a competitive ELISA method.
(§2) VHH-hFc was diluted to 2 μg/mL with PBS, and coated 96-well high-adsorption ELISA plates at 50 μL/well overnight at 4° C., 250 μL of blocking buffer (PBS containing 2% (w/w) BSA) was added for two hours of blocking at room temperature, 40 μg/mL of antibody to be tested was added, the human MSLN-FL-His protein with a concentration of EC80 corresponding to each antibody to be tested was then added for 2 hours of incubation, washing was performed with PBS 5 times, an HRP-labeled anti-His secondary antibody (purchased from Genescript, Cat. No. A00612) was then added for 1 hour of incubation, and the plates were washed 5 times. TMB substrate was added at 50 μl per well, and after 10 minutes of incubation at room temperature, stop solution (1.0 M HCl) was added at 50 μl per well. OD450 nm values were read using an ELISA plate reader (Insight, purchased from PerkinElmer), and the competition rate between the antibodies was calculated according to the OD450 nm values using a formula.
Test [4] concerns the target T1, human MSLN-FL-his protein. As to the kind of experiment: competitive ELISA on MSLN-FL-His; other antibody: Tab108 (R3) (3.m14).
Method: as §1, §2
Test [5] has as its target T2, human MSLN-R1-his protein. As to the kind of experiment: ELISA, antibody 1 nM.
In test [6] the target is T1, human MSLN-FL-his protein. Kind of test: competitive ELISA on MSLN-FL-His; other antibody: NB148-13 (3.m1).
Method: as §1, §2
Test [7] concerns the target T1, human MSLN-FL-his protein. Kind of test: competitive ELISA on MSLN-FL-His; other antibody: Tab107 (C) (1.m4).
Method: as §1, §2
Test [8] addresses T1, human MSLN-FL-his protein. As to the kind of experiment: competitive ELISA on MSLN-FL-His; other antibody: NB149-95 (3.m11).
Method: as §1, §2
The target of test [9] is T3, human MSLN-R2-his protein (human, UniProt Q13421 391-486).
T3 construct: MSLN-R2 = Ser391-Asn486; also called hMSLN-R2-his; not shown: histidine tag
As to the kind of experiment: ELISA, antibody 10 nM.

For test [10], the target named is T1, human MSLN-FL-his protein. As to the kind of experiment: competitive ELISA on MSLN-FL-His; other antibody: NB148-88 (3.m6).
Method: as §1, §2
Test [11] has as its target T4, human MSLN-R3-his protein (human, UniProt Q13421 487-598).
T4 construct: MSLN-R3 = Met487-Ser598; also called hMSLN-R3-his; not shown: histidine tag
As to the kind of experiment: ELISA, antibody 10 nM.

In test [12] the target is T2, human MSLN-R1-his protein. As to the kind of experiment: ELISA, antibody 10 nM.
For test [13], the target named is T2, human MSLN-R1-his protein. Kind of test: ELISA, antibody 0.1 nM.

T3 sequence (Q13421 other isoform, or with tags, fused parts or gaps): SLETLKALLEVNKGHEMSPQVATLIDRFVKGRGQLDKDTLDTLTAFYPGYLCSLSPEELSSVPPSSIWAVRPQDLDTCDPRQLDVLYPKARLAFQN
T4 sequence (Q13421 495-606): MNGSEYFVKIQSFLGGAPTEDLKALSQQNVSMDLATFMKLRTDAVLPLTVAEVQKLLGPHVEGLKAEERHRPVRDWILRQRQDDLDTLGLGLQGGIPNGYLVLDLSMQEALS

B1: Tab107 (YP3, hIgG1) (antibody, V domains shown)
VH: QEQLVESGGGLVQPGASLTLTCTASGIDFSRYYMCWVRQAPGKGLEGIACIYIGGSGSTYYASWAKGRFTISKASSTTVTLQMTSLTAADTATYFCARGTNLNYIFRLWGPGTLVTVSS
VL: DVVMTQTPSPVSAAVGGTVTIKCQASQSINNGLAWYQQKPGQPPRLLIYSASNLESGVPSRFKGSGSGTEFTLTISDLECDDAATYYCQCIWDGNSYVNAFGGGTEVVVRT
notes: also called YP3 human IgG1 antibody
On to B1, for which the inhibition rate in [1] was -9%; in test [3], 1%; in test [4] it was 21%; in test [6], 38%; in test [7] it was 65%; in test [8], -5%. Besides, the inhibition rate in test [10] was 4%. The OD450 nm in test [2] stood at 0.04; in test [5], 0.05; in test [9], 0.05; in test [11] it was 0.05; in test [12], 0.06; in [13] it was 0.05.
